As usually defined, the Kd is the free concentration of one partner at which half of the binding sites on the other are occupied at equilibrium, for simple one-to-one binding. A lower Kd goes with a tighter complex.

Positions count from the first letter of the chain named. Like-named read-outs stand apart in the source and are kept apart here.

Holding throughout (experiment): SPR
(Surface plasmon resonance follows binding to a sensor surface in real time, without labels.)

Assay [1] has as its target T1, C-terminal domain of Bundibugyo Ebola virus Nucleoprotein (NP^Ct).
For assay [2], the target named is T2, C-terminal domain of Tai Forest Ebola virus Nucleoprotein (NP^Ct).
Assay [3] has as its target T3, C-terminal domain of Zaire Ebola virus Nucleoprotein (NP^Ct) (UniProt P18272 641-739).
The target of assay [4] is C-terminal domain of Sudan Ebola virus Nucleoprotein (NP^Ct) (UniProt Q9QP77 641-738).
The target in assay [5] is T1, C-terminal domain of Bundibugyo Ebola …. The source holds these as a separate data set.
For assay [6], the target named is T2, C-terminal domain of Tai Forest Ebola …. This is another data set of the same source.
The target in assay [7] is C-terminal domain of Reston Ebola virus Nucleoprotein (NP^Ct) (UniProt Q8JPY1 641-739).
For assay [8], the target named is T3, C-terminal domain of Zaire Ebola virus …. The source holds these as a separate data set.

B1: Fab 6 (Fab, V domains shown)
VH: EVQLVESGGGLVQPGGSLRLSCAASGFNVYYYYIHWVRQAPGKGLEWVASISPYYGYTSSYADSVKGRFTISADTSKNTAYLQMNSLRAEDTAVYYCARWSYDQSMSYKSGMDYWGQGTLVTVSS
VL: DIQMTQSPSSLSASVGDRVTITCRASQSVSSAVAWYQQKPGKAPKLLIYSASSLYSGVPSRFSGSRSGTDFTLTISSLQPEDFATYYCQQYSYSLVTFGQGTKVEIKR
As for B1, the Kd in assay [1] was found to be 3.95 nM; in assay [2] it was 4.68 nM; in assay [3] it was 0.687 nM.

B2: Fab 20 (Fab, V domains shown)
VH: EVQLVESGGGLVQPGGSLRLSCAASGFNISYSSIHWVRQAPGKGLEWVASIYSYSGYTSYADSVKGRFTISADTSKNTAYLQMNSLRAEDTAVYYCARSYWYHVGSWHYTGMDYWGQGTLVTVSS
VL: B1 VL with Y91S, Y93S, V96I
Regarding B2, the Kd in assay [4] was found to be 20.3 nM; in assay [5], 16.6 nM; in assay [6] it was 3.05 nM; in assay [7], 11.7 nM; in assay [8], 4.14 nM.
